# Measured values taken from US20200262877A1, “ION CHANNEL-BINDING PEPTIDES AND METHODS OF USE THEREOF” (priority 2017, published 2020).
# Assays:
# NR2B = molecular target: T1, NR2B (Homo sapiens, UniProt Q13224); experiment: Ion channel panel (IonWorks Barracuda): NR2B; assay type: cell-based; conditions: 100% = no change, <100% = inhibition
# T1 construct: host or cells: HEK293 or CHO
# Description: (§1) This example describes a method for assaying ion channel activity in cells.
# (§2) Peptides were screened in duplicate at final concentrations of 20 μM and 200 nM, as determined by amino acid analysis, and diluted into HEPES buffered physiological saline (HBPS). HEK293 or CHO cells from the American Type Culture Collection (ATCC) were transfected with the appropriate ion channel before use. HEK293 cells were grown in Dulbecco's Modified Eagle Medium/Nutrient Mixture F-12, and CHO cells were cultured in Ham's F-12 media. All cultures were supplemented with 10% fetal bovine serum, 100 U/ml penicillin G, 100 μg/ml streptomycin sulfate, and the appropriate selection antibiotics. Prior to use, cells were washed twice with Hank's Balanced Salt Solution, and treated with Accutase cell detachment solution (Sigma-Aldrich). Cells were then washed. Peptides and controls were incubated with cells for at least five minutes.
# (§3) Percent inhibition was defined as: (1-(Ipeptide/Icontrol))×100%).
# (§4) Percent values were calculated using the following formula: % activation=(IPeptide/Icontrol)×100%, where IPeptide is the current produced by co-application a peptide with agonist, and Icontrol refers to the current produced by stimulation in control. Control used for each ion channel is the reference compound matched to a particular channel, as illustrated in TABLE 10 below.
# NR2A = molecular target: T2, NR2A (Homo sapiens, UniProt Q12879); experiment: Ion channel panel (IonWorks Barracuda): NR2A; assay type: cell-based; conditions: 100% = no change, <100% = inhibition
# T2 construct: host or cells: HEK293 or CHO
# Description: as §1, §2, §3, §4
# α4β2 = molecular target: T3, α4β2 (Homo sapiens, UniProt P17787+P43681); experiment: Ion channel panel (IonWorks Barracuda): α4β2; assay type: cell-based; conditions: 100% = no change, <100% = inhibition
# T3 construct: host or cells: HEK293 or CHO
# Description: as §1, §2, §3, §4
# Kv1.2 = molecular target: T4, Kv1.2 (Homo sapiens, UniProt P16389); experiment: cell-based; assay type: cell-based; conditions: 100% = no change, <100% = inhibition
# T4 construct: host or cells: HEK293 or CHO
# Description: as §1, §2, §3, §4
# Kv1.1 = molecular target: T5, Kv1.1 (Homo sapiens, UniProt Q09470); experiment: cell-based; assay type: cell-based; conditions: 100% = no change, <100% = inhibition
# T5 construct: host or cells: HEK293 or CHO
# T5 sequence (Q09470 whole entry): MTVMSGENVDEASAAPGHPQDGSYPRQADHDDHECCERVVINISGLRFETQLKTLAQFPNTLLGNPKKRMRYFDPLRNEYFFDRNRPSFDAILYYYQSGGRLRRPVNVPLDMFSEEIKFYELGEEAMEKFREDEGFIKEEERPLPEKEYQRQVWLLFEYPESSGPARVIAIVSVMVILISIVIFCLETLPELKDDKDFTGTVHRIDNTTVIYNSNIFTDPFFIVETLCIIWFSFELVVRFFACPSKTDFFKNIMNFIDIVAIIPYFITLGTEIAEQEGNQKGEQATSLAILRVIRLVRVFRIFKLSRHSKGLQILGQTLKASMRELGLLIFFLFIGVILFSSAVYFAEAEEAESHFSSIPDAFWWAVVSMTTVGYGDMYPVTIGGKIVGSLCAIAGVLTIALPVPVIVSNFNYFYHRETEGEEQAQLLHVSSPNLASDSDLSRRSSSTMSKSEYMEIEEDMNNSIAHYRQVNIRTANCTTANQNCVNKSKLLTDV
# Description: as §1, §2, §3, §4
# Kv1.3 = molecular target: T6, Kv1.3 (Homo sapiens, UniProt P22001); experiment: cell-based; assay type: cell-based; conditions: 100% = no change, <100% = inhibition
# T6 construct: host or cells: HEK293 or CHO
# T6 sequence (P22001 whole entry): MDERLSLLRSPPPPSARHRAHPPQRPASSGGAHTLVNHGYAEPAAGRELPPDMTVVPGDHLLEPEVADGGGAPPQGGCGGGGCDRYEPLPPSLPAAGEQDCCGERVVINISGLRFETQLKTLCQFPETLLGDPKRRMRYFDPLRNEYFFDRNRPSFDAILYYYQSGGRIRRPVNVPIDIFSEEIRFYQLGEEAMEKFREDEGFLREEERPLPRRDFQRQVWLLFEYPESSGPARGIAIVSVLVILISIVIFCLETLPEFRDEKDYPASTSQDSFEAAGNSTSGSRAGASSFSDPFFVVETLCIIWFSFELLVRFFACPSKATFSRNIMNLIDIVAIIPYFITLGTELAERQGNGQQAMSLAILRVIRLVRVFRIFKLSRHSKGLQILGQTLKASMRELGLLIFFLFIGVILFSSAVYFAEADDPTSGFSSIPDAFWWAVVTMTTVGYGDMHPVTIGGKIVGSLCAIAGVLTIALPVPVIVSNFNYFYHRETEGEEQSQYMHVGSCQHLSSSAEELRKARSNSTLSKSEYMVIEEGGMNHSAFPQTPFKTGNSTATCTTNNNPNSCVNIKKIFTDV
# Description: as §1, §2, §3, §4
# 5HT3a = molecular target: T7, 5HT3a (Homo sapiens, UniProt P46098); experiment: Ion channel panel (IonWorks Barracuda): 5HT3a; assay type: cell-based
# T7 construct: host or cells: HEK293 or CHO
# T7 sequence (P46098 whole entry, looked up): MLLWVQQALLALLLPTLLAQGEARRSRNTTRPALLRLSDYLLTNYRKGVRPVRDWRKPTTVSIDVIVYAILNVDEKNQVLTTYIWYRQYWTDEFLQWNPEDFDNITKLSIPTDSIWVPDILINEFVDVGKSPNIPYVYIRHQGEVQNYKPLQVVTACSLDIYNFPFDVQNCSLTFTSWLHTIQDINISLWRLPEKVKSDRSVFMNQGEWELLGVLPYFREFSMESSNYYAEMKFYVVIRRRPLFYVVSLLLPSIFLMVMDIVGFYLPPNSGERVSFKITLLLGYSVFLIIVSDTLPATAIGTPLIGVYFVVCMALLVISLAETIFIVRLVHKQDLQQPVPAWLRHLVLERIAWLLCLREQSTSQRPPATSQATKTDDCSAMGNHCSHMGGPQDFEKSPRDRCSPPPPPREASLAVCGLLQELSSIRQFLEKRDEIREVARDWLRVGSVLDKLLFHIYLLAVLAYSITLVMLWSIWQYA
# Description: as §1, §2, §3, §4
# GABA = experiment: Ion channel panel (IonWorks Barracuda): GABA; assay type: cell-based; conditions: 100% = no change, <100% = inhibition
# Description: as §1, §2, §3, §4
# α3β4 = molecular target: T8, α3β4 (Homo sapiens, UniProt P30926+P32297); experiment: Ion channel panel (IonWorks Barracuda): α3β4; assay type: cell-based; conditions: 100% = no change, <100% = inhibition
# T8 construct: host or cells: HEK293 or CHO
# Description: as §1, §2, §3, §4
# TRPA1 = molecular target: T9, TRPA1 (Homo sapiens, UniProt O75762); experiment: Ion channel panel (IonWorks Barracuda): TRPA1; assay type: cell-based; conditions: 100% = no change, <100% = inhibition
# T9 construct: host or cells: HEK293 or CHO
# Description: as §1, §2, §3, §4
# Nav1.5 = Nav1.5 (Homo sapiens, UniProt Q14524); experiment: in vitro; conditions: 100% = no change; for Activity of Nav1.5 with peptide, expressed as a percentage of the reference compound: peptide at 0.2 μM; for Activity of Nav1.5 with peptide (percentage of the reference compound): peptide at 20 μM
# Chain of Nav1.5 (Q14524 whole entry): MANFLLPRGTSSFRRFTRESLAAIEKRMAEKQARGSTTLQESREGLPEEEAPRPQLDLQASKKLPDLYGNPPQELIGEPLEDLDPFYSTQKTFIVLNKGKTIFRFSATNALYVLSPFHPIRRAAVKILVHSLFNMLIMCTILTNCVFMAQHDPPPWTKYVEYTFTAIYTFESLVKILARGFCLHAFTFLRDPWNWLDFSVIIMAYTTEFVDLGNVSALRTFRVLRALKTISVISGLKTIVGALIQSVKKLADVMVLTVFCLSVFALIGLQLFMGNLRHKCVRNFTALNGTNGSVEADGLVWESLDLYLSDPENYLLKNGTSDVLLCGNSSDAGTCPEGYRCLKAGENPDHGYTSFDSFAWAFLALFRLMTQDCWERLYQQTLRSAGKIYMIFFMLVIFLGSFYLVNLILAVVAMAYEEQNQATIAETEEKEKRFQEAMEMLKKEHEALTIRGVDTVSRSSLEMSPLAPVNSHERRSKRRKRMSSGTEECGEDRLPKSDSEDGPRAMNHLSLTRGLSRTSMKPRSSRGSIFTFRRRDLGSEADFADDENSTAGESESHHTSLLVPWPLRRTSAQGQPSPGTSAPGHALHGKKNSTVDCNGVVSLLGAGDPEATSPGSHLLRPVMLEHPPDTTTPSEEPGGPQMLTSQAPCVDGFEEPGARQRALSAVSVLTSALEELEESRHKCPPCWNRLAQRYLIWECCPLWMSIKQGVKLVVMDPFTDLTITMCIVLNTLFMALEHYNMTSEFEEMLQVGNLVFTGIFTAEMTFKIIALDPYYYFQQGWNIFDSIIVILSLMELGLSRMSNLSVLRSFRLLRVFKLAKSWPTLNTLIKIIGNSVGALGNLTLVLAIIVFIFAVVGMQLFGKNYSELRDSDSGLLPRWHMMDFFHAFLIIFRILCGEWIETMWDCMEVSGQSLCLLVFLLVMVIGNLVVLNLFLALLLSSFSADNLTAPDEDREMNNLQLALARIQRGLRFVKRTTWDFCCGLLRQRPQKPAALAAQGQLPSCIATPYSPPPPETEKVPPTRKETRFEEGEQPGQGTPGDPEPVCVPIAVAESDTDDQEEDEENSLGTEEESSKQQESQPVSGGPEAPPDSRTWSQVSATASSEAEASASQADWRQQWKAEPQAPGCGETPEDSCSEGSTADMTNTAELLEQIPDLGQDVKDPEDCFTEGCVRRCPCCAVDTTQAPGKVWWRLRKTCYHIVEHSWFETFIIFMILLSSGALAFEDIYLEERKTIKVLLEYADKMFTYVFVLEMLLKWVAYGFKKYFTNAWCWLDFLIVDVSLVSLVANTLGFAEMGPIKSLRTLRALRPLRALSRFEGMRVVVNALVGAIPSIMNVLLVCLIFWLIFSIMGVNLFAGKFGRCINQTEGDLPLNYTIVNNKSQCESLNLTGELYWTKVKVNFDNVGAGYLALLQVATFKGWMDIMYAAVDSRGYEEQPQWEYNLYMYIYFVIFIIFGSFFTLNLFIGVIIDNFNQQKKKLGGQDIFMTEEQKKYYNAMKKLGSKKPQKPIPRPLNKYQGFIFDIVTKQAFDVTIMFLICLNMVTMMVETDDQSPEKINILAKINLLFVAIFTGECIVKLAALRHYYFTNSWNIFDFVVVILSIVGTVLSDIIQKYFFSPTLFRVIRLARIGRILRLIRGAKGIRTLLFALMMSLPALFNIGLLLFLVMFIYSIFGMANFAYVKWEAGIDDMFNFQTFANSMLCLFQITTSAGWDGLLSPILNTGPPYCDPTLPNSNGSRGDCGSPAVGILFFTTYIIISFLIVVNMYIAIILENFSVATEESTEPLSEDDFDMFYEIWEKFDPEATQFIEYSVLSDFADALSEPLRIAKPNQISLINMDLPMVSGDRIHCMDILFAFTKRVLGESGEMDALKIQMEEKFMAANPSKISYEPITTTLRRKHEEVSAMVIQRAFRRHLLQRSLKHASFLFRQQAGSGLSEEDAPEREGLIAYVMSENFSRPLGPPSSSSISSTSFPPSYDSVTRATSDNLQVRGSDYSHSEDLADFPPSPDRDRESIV
# Description: as §1, §2, §3, §4
# hERG = hERG (Homo sapiens, UniProt Q12809); experiment: in vitro; conditions: 100% = no change, <100% = inhibition
# Description: as §1, §2, §3, §4
# Kir2.1 = molecular target: T10, Kir2.1 (Homo sapiens, UniProt P63252); experiment: Ion channel panel (IonWorks Barracuda): Kir2.1; assay type: cell-based; conditions: 100% = no change, <100% = inhibition
# T10 construct: host or cells: HEK293 or CHO
# Description: as §1, §2, §3, §4
# Cav2.2 = molecular target: T11, Cav2.2 (Homo sapiens, UniProt Q00975); experiment: cell-based; conditions: 100% = no change, <100% = inhibition
# T11 construct: host or cells: HEK293 or CHO
# Description: as §1, §2, §3, §4
# Cav2.1 = molecular target: T12, Cav2.1 (Homo sapiens, UniProt O00555); experiment: cell-based; conditions: 100% = no change, <100% = inhibition
# T12 construct: host or cells: HEK293 or CHO
# Description: as §1, §2, §3, §4
# Kv2.1 = molecular target: T13, Kv2.1 (Homo sapiens, UniProt Q14721); experiment: cell-based; conditions: 100% = no change, <100% = inhibition
# T13 construct: host or cells: HEK293 or CHO
# Description: as §1, §2, §3, §4
# Nav1.7 = molecular target: T14, Nav1.7 (Homo sapiens, UniProt Q15858); experiment: cell-based; assay type: cell-based; conditions: 100% = no change; for Activity of Nav1.7 with peptide, expressed as a percentage of the reference compound: peptide at 0.2 μM; for Activity of Nav1.7 with peptide (percentage of the reference compound): peptide at 20 μM
# T14 construct: host or cells: HEK293 or CHO
# T14 sequence (Q15858 whole entry): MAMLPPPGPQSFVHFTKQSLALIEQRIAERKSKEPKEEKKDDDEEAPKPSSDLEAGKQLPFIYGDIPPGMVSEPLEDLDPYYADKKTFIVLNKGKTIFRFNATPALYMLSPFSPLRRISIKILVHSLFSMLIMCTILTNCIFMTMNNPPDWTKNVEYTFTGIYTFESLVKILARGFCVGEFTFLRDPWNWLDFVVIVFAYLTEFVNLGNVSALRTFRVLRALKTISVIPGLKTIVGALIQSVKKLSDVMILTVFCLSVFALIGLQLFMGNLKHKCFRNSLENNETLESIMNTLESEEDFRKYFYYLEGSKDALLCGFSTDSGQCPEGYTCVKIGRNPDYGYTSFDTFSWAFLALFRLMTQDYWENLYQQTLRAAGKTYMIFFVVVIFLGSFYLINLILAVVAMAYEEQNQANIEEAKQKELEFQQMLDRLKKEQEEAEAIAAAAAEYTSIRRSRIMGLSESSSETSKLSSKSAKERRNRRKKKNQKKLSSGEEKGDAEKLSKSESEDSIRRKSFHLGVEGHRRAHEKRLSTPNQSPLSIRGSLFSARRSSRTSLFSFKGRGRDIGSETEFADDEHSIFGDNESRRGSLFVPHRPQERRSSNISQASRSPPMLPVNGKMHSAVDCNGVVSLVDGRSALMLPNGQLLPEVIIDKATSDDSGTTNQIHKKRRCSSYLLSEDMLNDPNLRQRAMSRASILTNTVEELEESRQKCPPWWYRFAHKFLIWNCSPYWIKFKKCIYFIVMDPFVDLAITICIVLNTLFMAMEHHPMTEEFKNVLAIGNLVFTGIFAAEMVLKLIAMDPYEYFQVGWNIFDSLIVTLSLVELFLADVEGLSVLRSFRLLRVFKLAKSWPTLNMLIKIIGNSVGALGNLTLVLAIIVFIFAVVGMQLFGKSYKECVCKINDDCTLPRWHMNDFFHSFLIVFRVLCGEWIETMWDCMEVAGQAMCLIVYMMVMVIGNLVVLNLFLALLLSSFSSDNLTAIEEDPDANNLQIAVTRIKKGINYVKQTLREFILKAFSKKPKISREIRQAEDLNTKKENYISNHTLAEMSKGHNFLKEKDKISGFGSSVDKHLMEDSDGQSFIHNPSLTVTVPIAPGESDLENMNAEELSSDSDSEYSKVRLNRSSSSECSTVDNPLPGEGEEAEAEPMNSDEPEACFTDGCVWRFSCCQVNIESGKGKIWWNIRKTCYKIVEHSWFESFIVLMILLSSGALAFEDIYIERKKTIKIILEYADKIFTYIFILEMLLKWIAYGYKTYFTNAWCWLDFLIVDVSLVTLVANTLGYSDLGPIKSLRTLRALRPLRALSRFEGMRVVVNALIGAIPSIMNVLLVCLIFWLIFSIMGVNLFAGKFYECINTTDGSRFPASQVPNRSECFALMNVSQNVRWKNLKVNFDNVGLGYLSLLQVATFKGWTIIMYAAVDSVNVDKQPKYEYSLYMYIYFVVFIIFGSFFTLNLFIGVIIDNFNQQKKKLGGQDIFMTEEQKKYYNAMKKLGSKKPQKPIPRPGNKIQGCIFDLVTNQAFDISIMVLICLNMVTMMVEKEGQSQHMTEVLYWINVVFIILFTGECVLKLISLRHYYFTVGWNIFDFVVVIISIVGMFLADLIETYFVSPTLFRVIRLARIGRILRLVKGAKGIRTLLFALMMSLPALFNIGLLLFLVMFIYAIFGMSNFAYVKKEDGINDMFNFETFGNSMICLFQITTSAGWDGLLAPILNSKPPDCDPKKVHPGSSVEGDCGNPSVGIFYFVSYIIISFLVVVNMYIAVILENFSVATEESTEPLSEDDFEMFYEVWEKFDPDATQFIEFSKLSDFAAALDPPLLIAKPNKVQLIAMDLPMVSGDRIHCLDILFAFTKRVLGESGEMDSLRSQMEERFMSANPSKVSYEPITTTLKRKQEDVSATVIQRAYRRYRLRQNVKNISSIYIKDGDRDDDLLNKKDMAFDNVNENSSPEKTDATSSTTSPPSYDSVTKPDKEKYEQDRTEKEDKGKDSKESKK
# Description: as §1
# as §2, with “Peptides were screened in duplicate at final concentrations of 20 μM and 200 nM, as determined by amino acid analysis, and diluted into HEPES buffered physiological saline (HBPS).” left out
# as §3, §4
# TRPV1 = molecular target: T15, TRPV1 (Homo sapiens, UniProt Q8NER1); experiment: Ion channel panel (IonWorks Barracuda): TRPV1; assay type: cell-based; conditions: 100% = no change, <100% = inhibition
# T15 construct: host or cells: HEK293 or CHO
# Description: as §1, §2, §3, §4
# [1] = first of two Nav1.5 columns (probably TP1)
# [2] = second of two Nav1.5 columns (probably TP2)
# [3] = first of two Nav1.7 columns (probably TP1)
# [4] = second of two Nav1.7 columns (probably TP2)
substance,measurement,setting,value
11 (GSGDCLPHLKRCKENNDCCSKKCKRRGANPEKRCR) [compound 11],"Activity of NR2B with peptide, expressed as a percentage of the reference compound",NR2B; peptide at 0.2 μM,103%
same,Activity of NR2B with peptide (percentage of the reference compound),NR2B; peptide at 20 μM,78%
same,"Activity of NR2A with peptide, expressed as a percentage of the reference compound",NR2A; peptide at 0.2 μM,103%
same,Activity of NR2A with peptide (percentage of the reference compound),NR2A; peptide at 20 μM,106%
same,"Activity of a4b2 with peptide, expressed as a percentage of the reference compound",α4β2; peptide at 0.2 μM,111%
same,Activity of a4b2 with peptide (percentage of the reference compound),α4β2; peptide at 20 μM,88%
same,"Activity of Kv1.2 with peptide, expressed as a percentage of the reference compound",Kv1.2; peptide at 0.2 μM,103%
same,Activity of Kv1.2 with peptide (percentage of the reference compound),Kv1.2; peptide at 20 μM,46%
same,"Activity of Kv1.1 with peptide, expressed as a percentage of the reference compound",Kv1.1; peptide at 0.2 μM,99%
same,Activity of Kv1.1 with peptide (percentage of the reference compound),Kv1.1; peptide at 20 μM,55%
same,"Activity of Kv1.3 with peptide, expressed as a percentage of the reference compound",Kv1.3; peptide at 0.2 μM,101%
same,Activity of Kv1.3 with peptide (percentage of the reference compound),Kv1.3; peptide at 20 μM,87%
same,Activity of 5HT3a with peptide (percentage of the reference compound),5HT3a,85%
same,"Activity of 5HT3a with peptide, expressed as a percentage of the reference compound",5HT3a,73%
same,"Activity of GABA with peptide, expressed as a percentage of the reference compound",GABA; peptide at 0.2 μM,96%
same,Activity of GABA with peptide (percentage of the reference compound),GABA; peptide at 20 μM,105%
same,"Activity of a3b4 with peptide, expressed as a percentage of the reference compound",α3β4; peptide at 0.2 μM,95%
same,Activity of a3b4 with peptide (percentage of the reference compound),α3β4; peptide at 20 μM,96%
same,"Activity of TRPA1 with peptide, expressed as a percentage of the reference compound",TRPA1; peptide at 0.2 μM,100%
same,Activity of TRPA1 with peptide (percentage of the reference compound),TRPA1; peptide at 20 μM,109%
same,"Activity of Nav1.5 with peptide, expressed as a percentage of the reference compound",Nav1.5; [1],107%
same,"Activity of Nav1.5 with peptide, expressed as a percentage of the reference compound",Nav1.5; [2],107%
same,Activity of Nav1.5 with peptide (percentage of the reference compound),Nav1.5; [1],113%
same,Activity of Nav1.5 with peptide (percentage of the reference compound),Nav1.5; [2],118%
same,"Activity of hERG with peptide, expressed as a percentage of the reference compound",hERG; peptide at 0.2 μM,97%
same,Activity of hERG with peptide (percentage of the reference compound),hERG; peptide at 20 μM,99%
same,"Activity of Kir2.1 with peptide, expressed as a percentage of the reference compound",Kir2.1; peptide at 0.2 μM,107%
same,Activity of Kir2.1 with peptide (percentage of the reference compound),Kir2.1; peptide at 20 μM,97%
same,"Activity of Cav2.2 with peptide, expressed as a percentage of the reference compound",Cav2.2; peptide at 0.2 μM,100%
same,Activity of Cav2.2 with peptide (percentage of the reference compound),Cav2.2; peptide at 20 μM,103%
same,"Activity of Cav2.1 with peptide, expressed as a percentage of the reference compound",Cav2.1; peptide at 0.2 μM,104%
same,Activity of Cav2.1 with peptide (percentage of the reference compound),Cav2.1; peptide at 20 μM,110%
same,"Activity of Kv2.1 with peptide, expressed as a percentage of the reference compound",Kv2.1; peptide at 0.2 μM,121%
same,Activity of Kv2.1 with peptide (percentage of the reference compound),Kv2.1; peptide at 20 μM,110%
same,"Activity of Nav1.7 with peptide, expressed as a percentage of the reference compound",Nav1.7; [3],107%
same,"Activity of Nav1.7 with peptide, expressed as a percentage of the reference compound",Nav1.7; [4],107%
same,Activity of Nav1.7 with peptide (percentage of the reference compound),Nav1.7; [3],96%
same,Activity of Nav1.7 with peptide (percentage of the reference compound),Nav1.7; [4],87%
same,"Activity of TRPV1 with peptide, expressed as a percentage of the reference compound",TRPV1; peptide at 0.2 μM,100%
same,Activity of TRPV1 with peptide (percentage of the reference compound),TRPV1; peptide at 20 μM,100%
